Experiments:
[1] = test system: noise exposed adult rats; test: Noise-induced hearing loss/synaptopathy, synaptic analysis of inner hair cells (Example A1); type: in vivo, rat; conditions: sustained release formulation, 0.005% BDNF in Poloxamer 407, single unilateral intratympanic administration 24 hrs after noise; Day 28; compared to vehicle treatment; FIG. 3B
Procedure: (§1) Male rats (Charles River) approximately 10-11 months of age served as subjects (N=6 per group). Prior to any procedures, animals were anesthetized using a combination of xylazine (10 mg/kg) and ketamine (90 mg/kg) for up to one hour via the intraperitoneal route. If needed, an intraoperative booster was administered intraperitoneally representing one-tenth of the original dose.
Noise exposure—Anesthetized animals (4 at a time) were placed in an enclosure and exposed to noise. The characteristics of the acoustic trauma were as follows: a single period of 1 h, sound pressure level of 105 dB SPL with a narrow band pass of 8-16 kHz. Noise was delivered using a Grason Stadler white noise generator, filtered through a Krohn Hite 3750 unit, amplified using a Crown D75 unit, and conveyed via a JBL speaker (model 2446H). Following treatment, the animals were returned to the vivarium. Noise exposure was calibrated over a range of 80-115 dB SPL across a wide range of frequencies using the Acoustical Interface Precision Microphone System and the Tucker Davis Technologies system. […]
Synaptic Analysis—Flat-mounted cochlear pieces from each ear were imaged at low magnification (10×) and the total length of the imaged tissue was measured and the frequency domains (4, 10, 20 and 40 kHz) were mapped onto the images. […]

[2] = test system: noise exposed adult rats; test: Noise-induced hearing loss/synaptopathy, ABR wave I amplitude (Example A1); type: in vivo, rat; conditions: sustained release formulation, 0.005% BDNF in Poloxamer 407, single unilateral intratympanic administration 24 hrs after noise; compared to vehicle treatment; FIG. 3A
Procedure: as §1
Noise exposure—Anesthetized animals (4 at a time) were placed in an enclosure and exposed to noise. The characteristics of the acoustic trauma were as follows: a single period of 1 h, sound pressure level of 105 dB SPL with a narrow band pass of 8-16 kHz. […]
Auditory Brainstem Response (ABR) assessment (wave 1)—During the procedure, additional anesthetic (xylazine and ketamine) was administered if needed to maintain the depth of anesthesia sufficient to insure immobilization and relaxation. ABRs were recorded in an electrically and acoustically shielded chamber, one ear at a time. […] Acoustic calibration was performed with TDT software (SigCal) and thresholds were expressed as dB SPL in conditions identical to that of threshold recordings in animals. […] Wave 1 was quantified by averaging the wave 1 amplitude from intensities ranging between 60-80 dB SPL.
Animals were exposed to noise on Day 0. […] ABR threshold and ABR wave I amplitude were measured weekly in live animals for up to 4 weeks. […]

B1: brain-derived neurotrophic factor (protein, UniProt P23560 129-247, looked up)
Neurotrophic factor BDNF: HSDPARRGELSVCDSISEWVTAADKKTAVDMSGGTVTVLEKVPVSKGQLKQYFYETKCNPMGYTKEGCRGIDKRHWNSQCRTTQSYVRALTMDSKKRIGWRFIRIDTSCVCTLTIKRGR
modifications: Neurotrophic factor BDNF in 16% poloxamer 407 gel
notes: Human recombinant BDNF
- number of ribbon synapses per inner hair cell [1]: increased
- hearing function (wave I amplitude) [2]: improved

— US20230122991A1, “GROWTH FACTOR FORMULATION FOR CONDITION ASSOCIATED WITH OTIC EVENT” (OTONOMY, INC., priority 2020, published 2023)
